Measurements from PMC3906126 (Biochemistry, 2013).

T1: WW1–WW2 tandem module of WWOX (residues 16–91) (human, UniProt Q9NZC7 16-91)
T1 sequence (looked up): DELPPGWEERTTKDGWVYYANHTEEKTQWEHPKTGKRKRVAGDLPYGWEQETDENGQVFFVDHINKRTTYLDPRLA

T2: WW1 domain of WWOX (residues 16–50) (human, UniProt Q9NZC7 16-50)
T2 chain (looked up): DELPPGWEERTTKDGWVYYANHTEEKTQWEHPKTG


Tests used:
Experiment in all cases: ITC
[1] = biological target: WW2W domain of WWOX (WW2 domain, residues 57–91, with the Y85W substitution) (human, UniProt Q9NZC7 57-91, Y85W)
WW2W domain of WWOX (WW2 domain, residues 57–91, with the Y85W substitution), sequence (Q9NZC7 57-91 Y85W): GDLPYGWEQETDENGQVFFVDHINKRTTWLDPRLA

[2] = biological target: T1, WW1–WW2 tandem module of WWOX (residues …)
[3] = biological target: T2, WW1 domain of WWOX (residues 16–50)

| Kd [1] [µM] | dH [1] [kcal/mol] | Kd [2] [µM] | dH [2] [kcal/mol] | Kd [3] [µM] | dH [3] [kcal/mol] | Binder |
| --- | --- | --- | --- | --- | --- | --- |
| 620 | -8.08 | 175 | -4.88 | 362 | -3.66 | GHSPPPAYTPMS [ErbB4_PY2 peptide (12-mer spanning the PY2 PPXY motif of the ICD of ErbB4)] |
| 680 | -4.74 | 170 | -7.25 | 383 | -6.88 | FNIPPPIYTSRA [ErbB4_PY1 peptide (12-mer spanning the PY1 PPXY motif of the ICD of ErbB4)] |
